Test results as given in publication PMC7847308, “Nanoscopic anatomy of dynamic multi-protein complexes at membranes resolved by graphene-induced energy transfer” (eLife, 2021).

T1: Mon1-Ccz1 complex (S. cerevisiae, UniProt P53129 1-644; P38273 1-704)
T1 construct: Mon1, S. cerevisiae; chromosomal locus under the GAL1 promoter; Ccz1, S. cerevisiae; chromosomal locus under the GAL1 promoter, TAP-tagged; Eluted from IgG beads by TEV cleavage; also called GEF; source: S. cerevisiae, overexpressed, purified (IgG Sepharose, TEV elution)
T1 sequence (looked up) 1: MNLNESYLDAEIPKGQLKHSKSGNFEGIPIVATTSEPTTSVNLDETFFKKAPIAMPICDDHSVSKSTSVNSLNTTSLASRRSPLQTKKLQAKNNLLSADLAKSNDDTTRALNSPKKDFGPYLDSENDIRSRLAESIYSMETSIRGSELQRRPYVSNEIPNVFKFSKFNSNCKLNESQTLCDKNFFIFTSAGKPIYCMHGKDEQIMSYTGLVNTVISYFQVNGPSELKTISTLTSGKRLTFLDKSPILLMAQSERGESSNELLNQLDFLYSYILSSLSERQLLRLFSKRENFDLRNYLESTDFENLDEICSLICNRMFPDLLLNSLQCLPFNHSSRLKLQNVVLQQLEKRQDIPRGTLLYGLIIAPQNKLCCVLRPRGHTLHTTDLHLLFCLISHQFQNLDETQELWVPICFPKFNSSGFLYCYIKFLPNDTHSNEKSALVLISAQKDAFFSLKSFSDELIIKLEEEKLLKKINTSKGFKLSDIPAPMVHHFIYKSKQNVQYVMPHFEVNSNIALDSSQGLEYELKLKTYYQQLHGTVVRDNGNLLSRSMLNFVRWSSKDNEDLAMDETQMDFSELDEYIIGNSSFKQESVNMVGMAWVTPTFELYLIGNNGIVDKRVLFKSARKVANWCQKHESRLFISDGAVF
T1 sequence (looked up) 2: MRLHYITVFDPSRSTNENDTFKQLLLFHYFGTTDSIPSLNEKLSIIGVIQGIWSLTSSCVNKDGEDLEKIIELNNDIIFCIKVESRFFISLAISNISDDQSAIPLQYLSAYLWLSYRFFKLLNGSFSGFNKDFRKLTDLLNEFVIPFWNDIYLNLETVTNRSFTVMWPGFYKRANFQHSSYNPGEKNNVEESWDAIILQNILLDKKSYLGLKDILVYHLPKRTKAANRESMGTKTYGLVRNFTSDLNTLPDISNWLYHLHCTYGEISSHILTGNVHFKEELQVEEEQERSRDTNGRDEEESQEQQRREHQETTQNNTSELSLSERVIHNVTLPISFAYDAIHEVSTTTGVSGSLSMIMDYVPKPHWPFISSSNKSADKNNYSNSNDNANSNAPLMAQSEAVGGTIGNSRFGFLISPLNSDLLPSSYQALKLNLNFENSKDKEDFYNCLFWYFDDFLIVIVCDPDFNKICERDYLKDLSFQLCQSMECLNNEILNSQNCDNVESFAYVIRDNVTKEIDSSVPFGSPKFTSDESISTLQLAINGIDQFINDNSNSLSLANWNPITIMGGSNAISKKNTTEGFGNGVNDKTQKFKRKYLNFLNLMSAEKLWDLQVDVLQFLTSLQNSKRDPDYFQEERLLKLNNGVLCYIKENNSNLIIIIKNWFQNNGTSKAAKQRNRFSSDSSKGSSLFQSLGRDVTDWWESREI


Legend:
Settings in all cases: both partners purified
[1] = molecular target: T2, HOPS complex with Vps33 C-terminally fused to yEGFP (S. cerevisiae, UniProt P38959 1-992; Q07468 1-1049; P12868 1-1029; P27801 1-918; Q03308 1-798; P20795 …); test: confocal fluorescence imaging and FLIM of recruitment to supported lipid layers; 50 nM yEGFP-fused HOPS added for 5 min at room temperature to DOPC bilayers on glass or monolayers on graphene loaded with 150 nM pYpt7-GTP; washed 5 times with HBS
T2 construct: Vps41, HOPS subunit, S. cerevisiae; Vps39, HOPS subunit, S. cerevisiae; Vps11, HOPS subunit, S. cerevisiae; Vps18, HOPS subunit, S. cerevisiae; Vps16, HOPS subunit, S. cerevisiae; Vps33, HOPS subunit, S. cerevisiae; In the single-molecule experiment labelled with 50 pM Dy647-coupled anti-GFP nanobody; also called HOPS Vps33-yEGFP; HOPS Vps33; source: S. cerevisiae, overexpressed, purified (IgG …)

[2] = molecular target: T3, HOPS complex with Vps39 C-terminally fused to yEGFP (S. cerevisiae, UniProt P38959 1-992; Q07468 1-1049; P12868 1-1029; P27801 1-918; Q03308 1-798; P20795 …); test: as above
T3 construct: Vps41, HOPS subunit, S. cerevisiae; Vps39, HOPS subunit, S. cerevisiae; Vps11, HOPS subunit, S. cerevisiae; Vps18, HOPS subunit, S. cerevisiae; Vps16, HOPS subunit, S. cerevisiae; Vps33, HOPS subunit, S. cerevisiae; also called HOPS Vps39-yEGFP; yEGFP-tagged HOPS; source: S. cerevisiae, overexpressed, purified (IgG Sepharose, TEV elution); copies: + + + + +

[3] = molecular target: T4, HOPS complex with Vps11 C-terminally fused to yEGFP (S. cerevisiae, UniProt P38959 1-992; Q07468 1-1049; P12868 1-1029; P27801 1-918; Q03308 1-798; P20795 …); test: as above
T4 construct: Vps41, HOPS subunit, S. cerevisiae; Vps39, HOPS subunit, S. cerevisiae; Vps11, HOPS subunit, S. cerevisiae; Vps18, HOPS subunit, S. cerevisiae; Vps16, HOPS subunit, S. cerevisiae; Vps33, HOPS subunit, S. cerevisiae; In the single-molecule experiment labelled with 50 pM Dy647-coupled anti-GFP nanobody; also called HOPS Vps11-yEGFP; HOPS Vps11; source: S. cerevisiae, overexpressed, purified (IgG …)

[4] = molecular target: T5, HOPS complex with Vps18 C-terminally fused to yEGFP (S. cerevisiae, UniProt P38959 1-992; Q07468 1-1049; P12868 1-1029; P27801 1-918; Q03308 1-798; P20795 …); test: as above
T5 construct: Vps41, HOPS subunit, S. cerevisiae; Vps39, HOPS subunit, S. cerevisiae; Vps11, HOPS subunit, S. cerevisiae; Vps18, HOPS subunit, S. cerevisiae; Vps16, HOPS subunit, S. cerevisiae; Vps33, HOPS subunit, S. cerevisiae; also called HOPS Vps18-yEGFP; yEGFP-tagged HOPS; source: S. cerevisiae, overexpressed, purified (IgG Sepharose, TEV elution); copies: + + + + +

[5] = molecular target: T6, HOPS complex with Vps16 C-terminally fused to yEGFP (S. cerevisiae, UniProt P38959 1-992; Q07468 1-1049; P12868 1-1029; P27801 1-918; Q03308 1-798; P20795 …); test: as above
T6 construct: Vps41, HOPS subunit, S. cerevisiae; Vps39, HOPS subunit, S. cerevisiae; Vps11, HOPS subunit, S. cerevisiae; Vps18, HOPS subunit, S. cerevisiae; Vps16, HOPS subunit, S. cerevisiae; Vps33, HOPS subunit, S. cerevisiae; also called HOPS Vps16-yEGFP; HOPS (Vps16-yEGFP); source: S. cerevisiae, overexpressed, purified (IgG Sepharose, TEV elution); copies: + + + + +

HOPS complex = molecular target: T7, HOPS complex (S. cerevisiae, UniProt P38959 1-992; Q07468 1-1049; P12868 1-1029; P27801 1-918; Q03308 1-798; P20795 …); test: FRAP and confocal imaging on supported lipid bilayers; 200 nM mNeon-pYpt7-GTP anchored in glass-supported lipid bilayers, 100 nM HOPS added; room temperature
T7 construct: Vps41, HOPS subunit, S. cerevisiae; Vps39, HOPS subunit, S. cerevisiae; Vps11, HOPS subunit, S. cerevisiae; Vps18, HOPS subunit, S. cerevisiae; Vps16, HOPS subunit, S. cerevisiae; Vps33, HOPS subunit, S. cerevisiae; 650 kDa heterohexamer; the 3HA follows the GAL1 promoter in the genotype; also called homotypic fusion and vacuole protein sorting complex; untagged HOPS; source: S. cerevisiae, …

Mon1-Ccz1 complex = molecular target: T1, Mon1-Ccz1 complex; test: GIET fluorescence lifetime (FLIM) on graphene-supported lipid monolayers; 200 nM mNeon-pYpt7-GTP anchored in lipid layers on graphene and glass; 100 nM Mon1-Ccz1 or HOPS added for 5 min at room temperature, washed 8 times with HBS; lifetime ratio of mNeon

| binding result [1] | binding result [2] | binding result [3] | binding result [4] | binding result [5] | binding result (HOPS complex) | binding result (Mon1-Ccz1 complex) | Binder |
| --- | --- | --- | --- | --- | --- | --- | --- |
| binds | binds | binds | binds | binds | – | – | prenylated Ypt7 (natural protein, S. cerevisiae, UniProt P32939 1-208, looked up, C-terminal prenyl (geranylgeranyl) group, added by in vitro prenylation, Ypt7, Rab7-like GTPase of S. cerevisiae; pET24d-GST-TEV-Ypt7 is surmised (the other construct carries a C-terminal His6 tag); GDP-loaded with GDI, GTP-loaded on membranes; also called pYpt7; pYpt7-GTP; source: E. coli BL21 (DE3) Rosetta, purified, prenylated in vitro) MSSRKKNILKVIILGDSGVGKTSLMHRYVNDKYSQQYKATIGADFLTKEVTVDGDKVATMQVWDTAGQERFQSLGVAFYRGADCCVLVYDVTNASSFENIKSWRDEFLVHANVNSPETFPFVILGNKIDAEESKKIVSEKSAQELAKSLGDIPLFLTSAKNAINVDTAFEEIARSALQQNQADTEAFEDDYNDAINIRLDGENNSCSC |
| – | – | – | – | – | binds | binds | prenylated mNeonGreen-Ypt7 (natural protein, S. cerevisiae, UniProt P32939 1-208, looked up, C-terminal prenyl (geranylgeranyl) group, added by in vitro prenylation, Ypt7, Rab7-like GTPase of S. cerevisiae; GDP-loaded in the complex with GDI; GTP-loaded when anchored in the lipid layers; also called mNeon-pYpt7; mNeon-Ypt7; source: E. coli BL21 (DE3) Rosetta, purified (Glutathione Sepharose, TEV cleavage), prenylated in vitro; not shown: mNeonGreen (via a GGSGx3 linker), N-terminal, kept) MSSRKKNILKVIILGDSGVGKTSLMHRYVNDKYSQQYKATIGADFLTKEVTVDGDKVATMQVWDTAGQERFQSLGVAFYRGADCCVLVYDVTNASSFENIKSWRDEFLVHANVNSPETFPFVILGNKIDAEESKKIVSEKSAQELAKSLGDIPLFLTSAKNAINVDTAFEEIARSALQQNQADTEAFEDDYNDAINIRLDGENNSCSC |
